From PMC11249618, “Presenilin2 D439A Mutation Induces Dysfunction of Mitochondrial Fusion/Fission Dynamics and Abnormal Regulation of GTPase Activity” (Molecular Neurobiology, 2023)

Target: T1, His-Miro2(220–592) (UniProt Q8IXI1 220-592)
T1 construct: Mitochondrial Rho GTPase 2 (Miro2), amino acids 220–592, in pET-32a; source: E. coli BL21, purified
Experiment: pull-down; GST pull-down of recombinant GST-PS2 fragments with recombinant His-Miro2 fragments; bound material eluted with SDS sample buffer, SDS-PAGE and Western blot (Fig. 5C, D)
Settings: both partners purified

T1 sequence (Q8IXI1 220-592): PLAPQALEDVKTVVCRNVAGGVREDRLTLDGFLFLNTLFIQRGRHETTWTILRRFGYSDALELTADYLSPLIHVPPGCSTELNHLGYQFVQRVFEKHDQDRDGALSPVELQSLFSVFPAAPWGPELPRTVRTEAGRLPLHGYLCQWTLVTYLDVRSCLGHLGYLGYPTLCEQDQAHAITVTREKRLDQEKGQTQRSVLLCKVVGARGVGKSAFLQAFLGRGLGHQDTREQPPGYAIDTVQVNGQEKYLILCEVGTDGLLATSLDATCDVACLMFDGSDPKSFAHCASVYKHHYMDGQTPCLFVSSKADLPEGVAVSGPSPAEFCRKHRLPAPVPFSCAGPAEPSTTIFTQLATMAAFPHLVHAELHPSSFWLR

binding result: binds
B1: GST-PS2(271–361) (domain or fragment)
chain: not shown
notes: source: E. coli BL21, purified
